Target: T1, MBP-SOA(1-331), myb+BTB (Anopheles gambiae, UniProt Q7Q6N8 1-331)
T1 sequence: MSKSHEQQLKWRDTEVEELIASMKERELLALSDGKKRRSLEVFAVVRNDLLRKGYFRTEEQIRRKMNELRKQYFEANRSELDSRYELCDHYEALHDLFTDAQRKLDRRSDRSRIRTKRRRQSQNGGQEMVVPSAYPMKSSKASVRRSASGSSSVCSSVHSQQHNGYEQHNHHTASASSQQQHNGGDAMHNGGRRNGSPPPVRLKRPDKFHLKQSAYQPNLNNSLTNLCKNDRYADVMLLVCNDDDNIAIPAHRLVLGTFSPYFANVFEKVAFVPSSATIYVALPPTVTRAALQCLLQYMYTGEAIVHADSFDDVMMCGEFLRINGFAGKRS
Experiment: fluorescence polarization; FP: 10 mM Na-HEPES pH 7.4, 150 mM NaCl, 1 mM TCEP, 0.1 g/l BSA, 5% glycerol, 0.05% Triton X-100, 5 nM DNA, 20 C; EMSA: 20 mM HEPES-KOH pH 7.5, 100 mM KCl, 0.05% NP-40, room temperature
Settings: protein: recombinant; tags: N-terminal His6-MBP; label: Cy5 on one strand; blunt

B1: CA10 dsDNA 20mer (dsDNA)
DNA 1: CACACACACACACACACACA
DNA 2: TGTGTGTGTGTGTGTGTGTG
Binder B1 has a Kd of 40 nM.

From publication PMC10620080, “The sex-specific factor SOA controls dosage compensation in Anopheles mosquitoes”
